Experimental data from FireProtDB (doi:10.1021/bi00250a032).
Values joined by “and” are separate entries in the source; they are usually repeats but may differ in a detail not shown here. Equal entries are not always repeated.

Details: Streptomyces sp. EC3, Thermal, DSC, reversible: yes
[1] = pH 7.5, Sodium phosphate 60 mM, transition: 3
[2] = pH 8.9, glycine-NaOH 60 mM, transition: 4

Chain of Endo-1,4-beta-xylanase wild type, Q56013 (Q56013 entry or part of it): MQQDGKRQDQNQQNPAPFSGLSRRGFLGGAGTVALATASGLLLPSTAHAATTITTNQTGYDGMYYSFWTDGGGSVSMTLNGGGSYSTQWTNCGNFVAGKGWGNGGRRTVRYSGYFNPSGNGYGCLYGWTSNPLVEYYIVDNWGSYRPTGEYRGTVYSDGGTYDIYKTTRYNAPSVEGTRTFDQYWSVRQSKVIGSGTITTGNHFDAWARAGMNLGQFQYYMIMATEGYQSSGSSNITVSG

Endo-1,4-beta-xylanase wild type, Q56013
unfolding enthalpy (calorimetric) (pH 3.6, Sodium phosphate 60 mM, transition: 4): 66 kcal/mol and 84 kcal/mol and 108 kcal/mol | unfolding enthalpy (calorimetric) (pH 4.1, Sodium phosphate 60 mM, transition: 3): 57 kcal/mol and 100 kcal/mol | unfolding enthalpy (calorimetric) (pH 6.3, Sodium phosphate 60 mM, transition: 4): 100 kcal/mol and 150 kcal/mol and 223 kcal/mol | Tm [1]: 60.5 °C and 64 °C | unfolding enthalpy (calorimetric) [1]: 99 kcal/mol and 200 kcal/mol | unfolding enthalpy (calorimetric) (pH 7.5, Sodium phosphate 60 mM, transition: 4): 93 kcal/mol and 137 kcal/mol and 187 kcal/mol | unfolding enthalpy (calorimetric) (pH 8.9, glycine-NaOH 60 mM, transition: 3): 72 kcal/mol and 136 kcal/mol | Tm [2]: 51.5 °C and 54.6 °C | unfolding enthalpy (calorimetric) [2]: 118 kcal/mol and 157 kcal/mol
